From patent publication US20250092124A1 (YUNNAN BAIYAO GROUP, published 2025)

How the values were obtained:
[1] = target: T1, GDF3 (R&D, 5754-G3-010) (UniProt Q9NR23 251-364); assay: ELISA, GDF3 coated at 1 µg/ml, HRP-anti-human IgG
T1 sequence (looked up): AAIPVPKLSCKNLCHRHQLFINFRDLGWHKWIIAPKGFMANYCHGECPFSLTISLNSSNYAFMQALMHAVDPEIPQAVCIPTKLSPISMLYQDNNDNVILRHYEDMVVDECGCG
Experimental: (§1) GDF15 (ACROBiosystems, GDS-HS149), GDF1 (R&D, 6937-GD-010), and GDF3 (R&D, 5754-G3-010) proteins were dissolved in PBS at a concentration of 1 μg/ml and were used to coat ELISA 96-well plate. On the next day, the 96-well plate was blocked with 2% BSA in PBS for 1 hour. After removing the blocking solution, GDF15 antibody 53E5 (hz), control antibody Ponsegromab and irrelevant hIgG1 were added at 4 μg/ml. After incubation at room temperature for 1 hour, the plate was washed, and then HRP-anti-human IgG was added. After incubation at room temperature for 1 hour, the HRP enzyme activity signal (OD450) was detected. The OD450 value is the relative signal of the antibody binding amount.

[2] = target: T2, GDF15-HIS (ACROBiosystems, CAT #: GD5-H5149) (human, UniProt Q99988 197-308); assay: cell-based or functional assay
T2 sequence (looked up): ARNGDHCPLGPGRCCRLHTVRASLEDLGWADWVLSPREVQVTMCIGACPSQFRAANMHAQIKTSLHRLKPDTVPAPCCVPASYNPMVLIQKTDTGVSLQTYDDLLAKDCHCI

[3] = target: T2, GDF15-HIS (ACROBiosystems, CAT #: …); assay: ELISA in stability test, antibody after 40 °C for 2 weeks; coated antigen not named
Experimental: (§2) An appropriate amount of each antibody was taken and adjusted to 10 mg/mL, and was placed at 40° C. for 1 and 2 weeks. Protein aggregation was detected using SEC-HPLC, and protein binding activity change was detected by ELISA.

[4] = target: T2, GDF15-HIS (ACROBiosystems, CAT #: …); assay: ELISA, GDF15-HIS coated
Experimental: The experiment was performed as detailed in Example 2, except that the coating protein was GDF15-HIS (ACROBiosystems, CAT #: GD5-H5149), and the antibodies to be tested (the humanized antibodies), negative control antibody (hIgG1), positive control antibodies Ponsegromab (Pfizer; Drug Bank: D11909) and AV380-hlgG1 (the heavy chain and light chain constant regions of AV380-mIgG1 were replaced with the constant regions of human IgG, i.e., SEQ ID NO. 5 and SEQ ID NO. 6) were added to each well of the coated plate.

[5] = target: T2, GDF15-HIS (ACROBiosystems, CAT #: …); assay: cell-based or functional assay; remark: listed apart in the source
[6] = target: T3, GDF1 (R&D, 6937-GD-010) (UniProt P27539 254-372); assay: ELISA, GDF1 coated at 1 µg/ml, HRP-anti-human IgG
T3 sequence (looked up): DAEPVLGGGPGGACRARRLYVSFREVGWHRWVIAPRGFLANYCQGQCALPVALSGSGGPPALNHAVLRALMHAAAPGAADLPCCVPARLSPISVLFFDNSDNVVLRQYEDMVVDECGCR
Experimental: as §1

[7] = target: T2, GDF15-HIS (ACROBiosystems, CAT #: …); assay: BLI (ForteBio Octet), antibody immobilised, GDF15 200-6.25 nM
[8] = target: T2, GDF15-HIS (ACROBiosystems, CAT #: …); assay: ELISA in stability test, antibody after 40 °C for 1 week; coated antigen not named
Experimental: as §2

B1: 53E5(hz) (antibody, human IgG1, kappa, V domains shown)
VH: QVQLQESGPGLVKPSETLSLTCTFSGFSLSTSGMGVGWIRQPPGKGLEWLAHILWDDVKRYNPALKSRLTISKDSSKSQISLKLSSVTAADTAVYYCVQMAWDWFAYWGQGTTVTVSS
VL: DIQMTQSPSSLSASVGDRVTITCKASQNVDTNVAWYQQKPGQSPKALIYSASYRSSGVPSRFSGSGSGTDFTLTISSLQPEDFATYYCQQYHSYPTFGQGTRLEIKR
notes: also called S3E5 (hz); humanized antibody 53E5
B1 was tested, and the binding result [1] was “no binding (tested: 4 µg/ml)”, the “Bottom (luciferase activity fold, fitted curve), HEK293 SRE-LUC2-cRET-GFRAL reporter cells” value [2] was 1.1 and the “IC50, luciferase in HEK293 SRE-LUC2-cRET-GFRAL reporter cells stimulated with GDF15-His 5 ng/ml” value [2] was 0.0225 µg/mL. The EC50 [3] was 0.0573 µg/mL, the EC50 [4] was 0.0833 µg/mL and the OD450.Max [4] was 1.05 OD450. For the same binder, the “EC50 (read off the curve) of GDF15-His for luciferase induction with 0.1 µg/ml antibody present” value [5] was roughly 0.02 µg/mL, the binding result [6] was “no binding (tested: 4 µg/ml)” and the Kd [7] was 0.293 nM. For the same binder, the koff [7] was 0.000271 s⁻¹, the kon [7] was 923000 M⁻¹ s⁻¹ and the EC50 [8] was 0.0641 µg/mL.
